Source: patent publication US20240141007A1
Where “and” joins values, the source holds several entries; their conditions need not be identical. Equal values may be shown once.

What was measured:
[1] = target: UCM22; assay: cell-based or functional assay
[2] = target: UCM23; assay: cell-based or functional assay

B1: MMP-7 (enzyme, UniProt P09237 95-267, looked up)
chain: YSLFPNSPKWTSKVVTYRIVSYTRDLPHITVDRLVSKALNMWGKEIPLHFRKVVWGTADIMIGFARGAHGDSYPFDGPGNTLAHAFAPGTGLGGDAHFDEDERWTDGSSLGINFLYAATHELGHSLGMGHSSDPNAVMYPTYGNGDPQNFKLSQDDIKGIQKLYGKRSNSRKK
- Est. kcat/KM (cleavage efficiency) [1]: 1800 M^-1S^-1 and 2100 M^-1S^-1
- Est. kcat/KM (cleavage efficiency) [2]: 2000 M^-1S^-1 and 2100 M^-1S^-1
